Assay results as given in article PMC4954977.

How the values were obtained:
[1] = target: murine neonatal Fc receptor (FcRn), extracellular domain (murine | not stated) (UniProt Q61559); assay: SPR; FcRn extracellular domain immobilised on a CM5 chip (600 RU); Fc fusions injected; McIlvaine's phosphate-citrate buffer pH 6.0 with 0.05% Tween 20, 25 °C, 50 μL/min; Biacore 3000; bivalent analyte model (KD1)
[2] = target: mouse PRYSPRY-domain of TRIM21 (tripartite-motif containing protein 21) (mouse); assay: SPR; TRIM21 PRYSPRY-domain immobilised on a CM5 chip (200 RU); Fc fusions injected; HBS-EP pH 7.4 (0.01 M HEPES, 0.15 M NaCl, 3 mM EDTA, 0.05% Tween 20), 25 °C, 50 μL/min; Biacore 3000; bivalent analyte model (KD1)

Sequence of UniProt Q61559 (Q61559 whole entry, looked up, the tested form may be a part): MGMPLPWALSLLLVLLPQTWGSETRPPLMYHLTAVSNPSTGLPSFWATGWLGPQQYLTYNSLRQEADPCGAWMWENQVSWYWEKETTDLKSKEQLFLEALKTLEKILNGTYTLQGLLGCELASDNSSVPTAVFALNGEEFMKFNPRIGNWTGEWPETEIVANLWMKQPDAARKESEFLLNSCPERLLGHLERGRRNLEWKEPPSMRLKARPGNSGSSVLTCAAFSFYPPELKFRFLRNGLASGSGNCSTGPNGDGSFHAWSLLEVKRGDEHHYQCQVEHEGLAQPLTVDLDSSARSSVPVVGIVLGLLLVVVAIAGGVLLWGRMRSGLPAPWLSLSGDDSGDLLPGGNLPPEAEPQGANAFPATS

For “Fc-ARP1 fusion protein (mouse IgG1 Fc fused to the anti-rotavirus VHH ARP1) (Fc fusion)”, the Kd [1] was 760 nM and the Kd [2] was 28 nM.
